In data set [1] the test system is HeLa Kyoto. Nature of the data set: solubility in G1/S (NP-40 vs SDS abundance) (log2 ratio); higher = more soluble. Particulars: cell cycle stage: G1/S.
The test system of data set [2] is HeLa Kyoto. Nature of the data set: melting temperature (median over replicates), in situ; higher = more thermally stable.
Data set [3] has as its system HeLa Kyoto. Nature of the data set: solubility change mitosis vs G1/S (difference of NP-40 vs SDS log2 ratios) (log2 ratio difference); higher = more soluble in mitosis.
For data set [4], the system named is HeLa Kyoto. In words: thermal stability score vs G1/S (z-score of summed log2 fold changes over temperatures); higher = more thermally stable than in G1/S.
Where [5] appears, read: cell cycle stage: early G1 (4.5 h after nocodazole release).
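For melting temperature (median over replicates), in situ in this document: HeLa Kyoto cells synchronized by double thymidine or nocodazole block, proteins quantified by TMT10plex mass spectrometry, three independent biological replicates.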
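For solubility change mitosis vs G1/S (difference of NP-40 vs SDS log2 ratios) in this document: synchronized HeLa Kyoto cells (double thymidine block for G1/S, nocodazole release for mitosis), protein amounts in NP-40 versus SDS lysates quantified by mass spectrometry, three biological replicates.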
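For solubility in G1/S (NP-40 vs SDS abundance) in this document: HeLa Kyoto cells arrested at G1/S by double thymidine block, proteins quantified by TMT10plex mass spectrometry in mild NP-40 versus SDS extracts, three biological replicates.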
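For thermal stability score vs G1/S (z-score of summed log2 fold changes over temperatures) in this document: synchronized HeLa Kyoto cells, proteins quantified by TMT10plex mass spectrometry, three biological replicates, mitosis taken 0.5 h after nocodazole release, G1/S directly after double thymidine block.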

As for “MERQVLLSEPEEAAALYRGLSRQPALSAACLGPEVTTQYGGQYRTVHTEWTQRDLERMENIRFCRQYLVFHDGDSVVFAGPAGNSVETRGELLSRESPSGTMKAVLRKAGGTGPGEEKQFLEVWEKNRKLKSFNLSALEKHGPVYEDDCFGCLSWSHSETHLLYVAEKKRPKAESFFQTKALDVSASDDEIARLKKPDQAIKGDQFVFYEDWGENMVSKSIPVLCVLDVESGNISVLEGVPENVSPGQAFWAPGDAGVVFVGWWHEPFRLGIRFCTNRRSALYYVDLIGGKCELLSDDSLAVSSPRLSPDQCRIVYLQYPSLIPHHQCSQLCLYDWYTKVTSVVVDVVPRQLGENFSGIYCSLLPLGCWSADSQRVVFDSAQRSRQDLFAVDTQVGTVTSLTAGGSGGSWKLLTIDQDLMVAQFSTPSLPPTLKVGFLPSAGKEQSVLWVSLEEAEPIPDIHWGIRVLQPPPEQENVQYAGLDFEAILLQPGSPPDKTQVPMVVMPHGGPHSSFVTAWMLFPAMLCKMGFAVLLVNYRGSTGFGQDSILSLPGNVGHQDVKDVQFAVEQVLQEEHFDASHVALMGGSHGGFISCHLIGQYPETYRACVARNPVINIASMLGSTDIPDWCVVEAGFPFSSDCLPDLSVWAEMLDKSPIRYIPQVKTPLLLMLGQEDRRVPFKQGMEYYRALKTRNVPVRLLLYPKSTHALSEVEVESDSFMNAVLWLRTHLGS [APEH]”, the “solubility in G1/S (log2)” value with HeLa Kyoto [1] amounted to 0.11. Further, the melting temperature came out at 58.5 °C in the data set with HeLa Kyoto [2] (cell cycle stage: G1/S) and 59.4 °C in the data set with HeLa Kyoto [2] (cell cycle stage: mitosis). For the same sequence, in the data set on HeLa Kyoto [3], the “solubility change mitosis (log2)” value is -0.0981. Besides, the thermal stability score with HeLa Kyoto [4] (setting [5]) was -2.58; in the data set on HeLa Kyoto [4] (cell cycle stage: mitosis), -2.38.
Take “MERSGPSEVTGSDASGPDPQLAVTMGFTGFGKKARTFDLEAMFEQTRRTAVERSRKTLEAREKEEEMNREKELRRQNEDIEPTSSRSNVVRDCSKSSSRDTSSSESEQSSDSSDDELIGPPLPPKMVGKPVNFMEEDILGPLPPPLNEEEEEAEEEEEEEEEEENPVHKIPDSHEITLKHGTKTVSALGLDPSGARLVTGGYDYDVKFWDFAGMDASFKAFRSLQPCECHQIKSLQYSNTGDMILVVSGSSQAKVIDRDGFEVMECIKGDQYIVDMANTKGHTAMLHTGSWHPKIKGEFMTCSNDATVRTWEVENPKKQKSVFKPRTMQGKKVIPTTCTYSRDGNLIAAACQNGSIQIWDRNLTVHPKFHYKQAHDSGTDTSCVTFSYDGNVLASRGGDDSLKLWDIRQFNKPLFSASGLPTMFPMTDCCFSPDDKLIVTGTSIQRGCGSGKLVFFERRTFQRVYEIDITDASVVRCLWHPKLNQIMVGTGNGLAKVYYDPNKSQRGAKLCVVKTQRKAKQAETLTQDYIITPHALPMFREPRQRSTRKQLEKDRLDPLKSHKPEPPVAGPGRGGRVGTHGGTLSSYIVKNIALDKTDDSNPREAILRHAKAAEDSPYWVSPAYSKTQPKTMFAQVESDDEEAKNEPEWKKRKI [WDR70]”: in the data set with HeLa Kyoto [1], the “solubility in G1/S (log2)” value is -0.0649. Also, the values for the melting temperature in the data set on HeLa Kyoto [2] (cell cycle stage: G1/S) and with HeLa Kyoto [2] (cell cycle stage: mitosis) were 53.3 °C and 53.2 °C, respectively. The “solubility change mitosis (log2)” value in the data set with HeLa Kyoto [3] was -0.0897. Besides, the thermal stability score with HeLa Kyoto [4] (setting [5]) is -0.26; in the data set on HeLa Kyoto [4] (cell cycle stage: mitosis), -0.746.
For “MESALPAAGFLYWVGAGTVAYLALRISYSLFTALRVWGVGNEAGVGPGLGEWAVVTGSTDGIGKSYAEELAKHGMKVVLISRSKDKLDQVSSEIKEKFKVETRTIAVDFASEDIYDKIKTGLAGLEIGILVNNVGMSYEYPEYFLDVPDLDNVIKKMININILSVCKMTQLVLPGMVERSKGAILNISSGSGMLPVPLLTIYSATKTFVDFFSQCLHEEYRSKGVFVQSVLPYFVATKLAKIRKPTLDKPSPETFVKSAIKTVGLQSRTNGYLIHALMGSIISNLPSWIYLKIVMNMNKSTRAHYLKKTKKN [HSD17B12]”, the “solubility in G1/S (log2)” value in the data set with HeLa Kyoto [1] is 0.079. Moreover, the melting temperature amounted to 53.9 °C in the data set with HeLa Kyoto [2] (cell cycle stage: G1/S) and 53.7 °C with HeLa Kyoto [2] (cell cycle stage: mitosis). Moreover, the “solubility change mitosis (log2)” value in the data set with HeLa Kyoto [3] is -0.194. The results for the thermal stability score in the data set on HeLa Kyoto [4] (setting [5]) and in the data set with HeLa Kyoto [4] (cell cycle stage: mitosis) were -1.05 and -1.18, respectively.
As to “MESCYNPGLDGIIEYDDFKLNSSIVEPKEPAPETADGPYLVIVEQPKQRGFRFRYGCEGPSHGGLPGASSEKGRKTYPTVKICNYEGPAKIEVDLVTHSDPPRAHAHSLVGKQCSELGICAVSVGPKDMTAQFNNLGVLHVTKKNMMGTMIQKLQRQRLRSRPQGLTEAEQRELEQEAKELKKVMDLSIVRLRFSAFLRASDGSFSLPLKPVISQPIHDSKSPGASNLKISRMDKTAGSVRGGDEVYLLCDKVQKDDIEVRFYEDDENGWQAFGDFSPTDVHKQYAIVFRTPPYHKMKIERPVTVFLQLKRKRGGDVSDSKQFTYYPLVEDKEEVQRKRRKALPTFSQPFGGGSHMGGGSGGAAGGYGGAGGGGSLGFFPSSLAYSPYQSGAGPMGCYPGGGGGAQMAATVPSRDSGEEAAEPSAPSRTPQCEPQAPEMLQRAREYNARLFGLAQRSARALLDYGVTADARALLAGQRHLLTAQDENGDTPLHLAIIHGQTSVIEQIVYVIHHAQDLGVVNLTNHLHQTPLHLAVITGQTSVVSFLLRVGADPALLDRHGDSAMHLALRAGAGAPELLRALLQSGAPAVPQLLHMPDFEGLYPVHLAVRARSPECLDLLVDSGAEVEATERQGGRTALHLATEMEELGLVTHLVTKLRANVNARTFAGNTPLHLAAGLGYPTLTRLLLKAGADIHAENEEPLCPLPSPPTSDSDSDSEGPEKDTRSSFRGHTPLDLTCSTKVKTLLLNAAQNTMEPPLTPPSPAGPGLSLGDTALQNLEQLLDGPEAQGSWAELAERLGLRSLVDTYRQTTSPSGSLLRSYELAGGDLAGLLEALSDMGLEEGVRLLRGPETRDKLPSTAEVKEDSAYGSQSVEQEAEKLGPPPEPPGGLCHGHPQPQVH [NFKB2]”, the “solubility in G1/S (log2)” value with HeLa Kyoto [1] is 0.18. Also, the melting temperature is 47.5 °C in the data set on HeLa Kyoto [2] (cell cycle stage: G1/S) and 48.3 °C with HeLa Kyoto [2] (cell cycle stage: mitosis). Further, the “solubility change mitosis (log2)” value in the data set on HeLa Kyoto [3] is -0.0485. Besides, the values for the thermal stability score in the data set on HeLa Kyoto [4] (setting [5]) and in the data set on HeLa Kyoto [4] (cell cycle stage: mitosis) were 1.06 and 3.27, respectively.
On to “MESKALLVLTLAVWLQSLTASRGGVAAADQRRDFIDIESKFALRTPEDTAEDTCHLIPGVAESVATCHFNHSSKTFMVIHGWTVTGMYESWVPKLVAALYKREPDSNVIVVDWLSRAQEHYPVSAGYTKLVGQDVARFINWMEEEFNYPLDNVHLLGYSLGAHAAGIAGSLTNKKVNRITGLDPAGPNFEYAEAPSRLSPDDADFVDVLHTFTRGSPGRSIGIQKPVGHVDIYPNGGTFQPGCNIGEAIRVIAERGLGDVDQLVKCSHERSIHLFIDSLLNEENPSKAYRCSSKEAFEKGLCLSCRKNRCNNLGYEINKVRAKRSSKMYLKTRSQMPYKVFHYQVKIHFSGTESETHTNQAFEISLYGTVAESENIPFTLPEVSTNKTYSFLIYTEVDIGELLMLKLKWKSDSYFSWSDWWSSPGFAIQKIRVKAGETQKKVIFCSREKVSHLQKGKAPAVFVKCHDKSLNKKSG [LPL]”, for which the “solubility in G1/S (log2)” value in the data set on HeLa Kyoto [1] is -0.0225. The melting temperature in the data set on HeLa Kyoto [2] (cell cycle stage: G1/S) worked out at 53.9 °C; in the data set with HeLa Kyoto [2] (cell cycle stage: mitosis) it was 53.7 °C. In addition, the “solubility change mitosis (log2)” value with HeLa Kyoto [3] is -0.028. Besides, the thermal stability score is -1.96 with HeLa Kyoto [4] (setting [5]) and -2.52 in the data set with HeLa Kyoto [4] (cell cycle stage: mitosis).
Take “MESPGESGAGSPGAPSPSSFTTGHLAREKPAQDPLYDVPNASGGQAGGPQRPGRVVSLRERLLLTRPVWLQLQANAAAALHMLRTEPPGTFLVRKSNTRQCQALCMRLPEASGPSFVSSHYILESPGGVSLEGSELMFPDLVQLICAYCHTRDILLLPLQLPRAIHHAATHKELEAISHLGIEFWSSSLNIKAQRGPAGGPVLPQLKARSPQELDQGTGAALCFFNPLFPGDLGPTKREKFKRSFKVRVSTETSSPLSPPAVPPPPVPVLPGAVPSQTERLPPCQLLRRESSVGYRVPAGSGPSLPPMPSLQEVDCGSPSSSEEEGVPGSRGSPATSPHLGRRRPLLRSMSAAFCSLLAPERQVGRAAAALMQDRHTAAGQLVQDLLTQVRAGPEPQELQGIRQALSRARAMLSAELGPEKLLSPKRLEHVLEKSLHCSVLKPLRPILAARLRRRLAADGSLGRLAEGLRLARAQGPGAFGSHLSLPSPVELEQVRQKLLQLLRTYSPSAQVKRLLQACKLLYMALRTQEGEGAGADEFLPLLSLVLAHCDLPELLLEAEYMSELLEPSLLTGEGGYYLTSLSASLALLSGLGQAHTLPLSPVQELRRSLSLWEQRRLPATHCFQHLLRVAYQDPSSGCTSKTLAVPPEASIATLNQLCATKFRVTQPNTFGLFLYKEQGYHRLPPGALAHRLPTTGYLVYRRAEWPETQGAVTEEEGSGQSEARSRGEEQGCQGDGDAGVKASPRDIREQSETTAEGGQGQAQEGPAQPGEPEAEGSRAAEE [RIN1]”: the “solubility in G1/S (log2)” value in the data set with HeLa Kyoto [1] was determined as 0.282. The melting temperature in the data set on HeLa Kyoto [2] (cell cycle stage: G1/S) is 48.9 °C; with HeLa Kyoto [2] (cell cycle stage: mitosis), 48.6 °C. Besides, in the data set with HeLa Kyoto [3], the “solubility change mitosis (log2)” value was -0.062. Also, the thermal stability score was found to be 0.0327 in the data set with HeLa Kyoto [4] (setting [5]) and 1.21 with HeLa Kyoto [4] (cell cycle stage: mitosis).
